Test results from patent publication US20240270846A1 (published 2024).

biological target: T1, CD3 epsilon homodimer protein (UniProt P07766 23-126); assay: SPR Biacore T200, CD3e homodimer on chip, antibody analyte;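 also: CD3 epsilon homodimer amine-coupled on CM4 sensor chip, antibodies injected as analyte at 25 °C in HBS-EP+, ratio ≥0.8 taken as binding retained versus unaltered parent antibody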
T1 construct: Construct of the homodimer is not described; also called CD3 (CD3 epsilon)
T1 sequence (P07766 23-126): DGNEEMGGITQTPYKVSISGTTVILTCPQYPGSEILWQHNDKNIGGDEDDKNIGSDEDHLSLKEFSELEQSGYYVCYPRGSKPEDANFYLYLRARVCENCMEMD

| Binder | ratio of amounts bound (altered form/GLS3000) |
| --- | --- |
| GLS3000 G91T one-arm antibody (antibody, human IgG1, kappa, L234A L235A, N297A, name in Kabat numbering) light: DIVMTQSPLSLPVTPGEPASISCRSSQSLVHSNRNTYLHWYQQKPGQAPRLLIYKVSNRFSGVPDRFSGSGSGTDFTLKISRVEAEDVGVYYCGQTTQVPYTFGQGTKLEIKRTVAAPSVFIFPPSDEQLKSGTASVVCLLNNFYPREAKVQWKVDNALQSGNSQESVTEQDSKDSTYSLSSTLTLSKADYEKHKVYACEVTHQGLSSPVTKSFNRGEC heavy: QVQLVESGGGVVQPGRSLRLSCAASGFTFSNAWMHWVRQAPGKGLEWVAQIKAKSNNYATYYAESVKGRFTISRDDSKNSLYLQMNSLKTEDTAVYYCRYVHYGAYYGVDAWGQGTTVTVSSASTKGPSVFPLAPSSKSTSGGTAALGCLVKDYFPEPVTVSWNSGALTSGVHTFPAVLQSSGLYSLSSVVTVPSSSLGTQTYICNVNHKPSNTKVDKKVEPKSCDKTHTCPPCPAPEAAGGPSVFLFPPKPKDTLMISRTPEVTCVVVDVSHEDPEVKFNWYVDGVEVHNAKTKPREEQYASTYRVVSVLTVLHQDWLNGKEYKCKVSNKALPAPIEKTISKAKGQPREPQVYTLPPSRCELTKNQVSLSCAVKGFYPSDIAVEWESNGQPENNYKTTPPVLDSDGSFFLVSKLTVDKSRWQQGNVFSCSVMHEALHNHYTQKSLSLSPDYKDDDDK EPKSSDKTHTCPPCPAPELLGGPSVFLFPPKPKDTLMISRTPEVTCVVVDVSHEDPEVKFNWYVDGVEVHNAKTKPREEQYNSTYRVVSVLTVLHQDWLNGKEYKCKVSNKALPAPIEKTISKAKGQPREPQVCTLPPSRDELTKNQVSLWCLVKGFYPSDIAVEWESNGQPENNYKTTPPVLDSDGSFFLYSKLTVDKSRWQQGNVFSCSVMHEALHNRYTQKSLSLSP | 0.26 |
| GLS3000 H34I one-arm antibody (antibody, human IgG1, kappa, L234A L235A, N297A, name in Kabat numbering) light: DIVMTQSPLSLPVTPGEPASISCRSSQSLVHSNRNTYLIWYQQKPGQAPRLLIYKVSNRFSGVPDRFSGSGSGTDFTLKISRVEAEDVGVYYCGQGTQVPYTFGQGTKLEIKRTVAAPSVFIFPPSDEQLKSGTASVVCLLNNFYPREAKVQWKVDNALQSGNSQESVTEQDSKDSTYSLSSTLTLSKADYEKHKVYACEVTHQGLSSPVTKSFNRGEC heavy: QVQLVESGGGVVQPGRSLRLSCAASGFTFSNAWMHWVRQAPGKGLEWVAQIKAKSNNYATYYAESVKGRFTISRDDSKNSLYLQMNSLKTEDTAVYYCRYVHYGAYYGVDAWGQGTTVTVSSASTKGPSVFPLAPSSKSTSGGTAALGCLVKDYFPEPVTVSWNSGALTSGVHTFPAVLQSSGLYSLSSVVTVPSSSLGTQTYICNVNHKPSNTKVDKKVEPKSCDKTHTCPPCPAPEAAGGPSVFLFPPKPKDTLMISRTPEVTCVVVDVSHEDPEVKFNWYVDGVEVHNAKTKPREEQYASTYRVVSVLTVLHQDWLNGKEYKCKVSNKALPAPIEKTISKAKGQPREPQVYTLPPSRCELTKNQVSLSCAVKGFYPSDIAVEWESNGQPENNYKTTPPVLDSDGSFFLVSKLTVDKSRWQQGNVFSCSVMHEALHNHYTQKSLSLSPDYKDDDDK EPKSSDKTHTCPPCPAPELLGGPSVFLFPPKPKDTLMISRTPEVTCVVVDVSHEDPEVKFNWYVDGVEVHNAKTKPREEQYNSTYRVVSVLTVLHQDWLNGKEYKCKVSNKALPAPIEKTISKAKGQPREPQVCTLPPSRDELTKNQVSLWCLVKGFYPSDIAVEWESNGQPENNYKTTPPVLDSDGSFFLYSKLTVDKSRWQQGNVFSCSVMHEALHNRYTQKSLSLSP | 0.65 |
| GLS3000 H34F one-arm antibody (antibody, human IgG1, kappa, L234A L235A, N297A, name in Kabat numbering) light: DIVMTQSPLSLPVTPGEPASISCRSSQSLVHSNRNTYLFWYQQKPGQAPRLLIYKVSNRFSGVPDRFSGSGSGTDFTLKISRVEAEDVGVYYCGQGTQVPYTFGQGTKLEIKRTVAAPSVFIFPPSDEQLKSGTASVVCLLNNFYPREAKVQWKVDNALQSGNSQESVTEQDSKDSTYSLSSTLTLSKADYEKHKVYACEVTHQGLSSPVTKSFNRGEC heavy: QVQLVESGGGVVQPGRSLRLSCAASGFTFSNAWMHWVRQAPGKGLEWVAQIKAKSNNYATYYAESVKGRFTISRDDSKNSLYLQMNSLKTEDTAVYYCRYVHYGAYYGVDAWGQGTTVTVSSASTKGPSVFPLAPSSKSTSGGTAALGCLVKDYFPEPVTVSWNSGALTSGVHTFPAVLQSSGLYSLSSVVTVPSSSLGTQTYICNVNHKPSNTKVDKKVEPKSCDKTHTCPPCPAPEAAGGPSVFLFPPKPKDTLMISRTPEVTCVVVDVSHEDPEVKFNWYVDGVEVHNAKTKPREEQYASTYRVVSVLTVLHQDWLNGKEYKCKVSNKALPAPIEKTISKAKGQPREPQVYTLPPSRCELTKNQVSLSCAVKGFYPSDIAVEWESNGQPENNYKTTPPVLDSDGSFFLVSKLTVDKSRWQQGNVFSCSVMHEALHNHYTQKSLSLSPDYKDDDDK EPKSSDKTHTCPPCPAPELLGGPSVFLFPPKPKDTLMISRTPEVTCVVVDVSHEDPEVKFNWYVDGVEVHNAKTKPREEQYNSTYRVVSVLTVLHQDWLNGKEYKCKVSNKALPAPIEKTISKAKGQPREPQVCTLPPSRDELTKNQVSLWCLVKGFYPSDIAVEWESNGQPENNYKTTPPVLDSDGSFFLYSKLTVDKSRWQQGNVFSCSVMHEALHNRYTQKSLSLSP | 0.27 |
| GLS3000 H34E one-arm antibody (antibody, human IgG1, kappa, L234A L235A, N297A, name in Kabat numbering) light: DIVMTQSPLSLPVTPGEPASISCRSSQSLVHSNRNTYLEWYQQKPGQAPRLLIYKVSNRFSGVPDRFSGSGSGTDFTLKISRVEAEDVGVYYCGQGTQVPYTFGQGTKLEIKRTVAAPSVFIFPPSDEQLKSGTASVVCLLNNFYPREAKVQWKVDNALQSGNSQESVTEQDSKDSTYSLSSTLTLSKADYEKHKVYACEVTHQGLSSPVTKSFNRGEC heavy: QVQLVESGGGVVQPGRSLRLSCAASGFTFSNAWMHWVRQAPGKGLEWVAQIKAKSNNYATYYAESVKGRFTISRDDSKNSLYLQMNSLKTEDTAVYYCRYVHYGAYYGVDAWGQGTTVTVSSASTKGPSVFPLAPSSKSTSGGTAALGCLVKDYFPEPVTVSWNSGALTSGVHTFPAVLQSSGLYSLSSVVTVPSSSLGTQTYICNVNHKPSNTKVDKKVEPKSCDKTHTCPPCPAPEAAGGPSVFLFPPKPKDTLMISRTPEVTCVVVDVSHEDPEVKFNWYVDGVEVHNAKTKPREEQYASTYRVVSVLTVLHQDWLNGKEYKCKVSNKALPAPIEKTISKAKGQPREPQVYTLPPSRCELTKNQVSLSCAVKGFYPSDIAVEWESNGQPENNYKTTPPVLDSDGSFFLVSKLTVDKSRWQQGNVFSCSVMHEALHNHYTQKSLSLSPDYKDDDDK EPKSSDKTHTCPPCPAPELLGGPSVFLFPPKPKDTLMISRTPEVTCVVVDVSHEDPEVKFNWYVDGVEVHNAKTKPREEQYNSTYRVVSVLTVLHQDWLNGKEYKCKVSNKALPAPIEKTISKAKGQPREPQVCTLPPSRDELTKNQVSLWCLVKGFYPSDIAVEWESNGQPENNYKTTPPVLDSDGSFFLYSKLTVDKSRWQQGNVFSCSVMHEALHNRYTQKSLSLSP | 0.23 |
| GLS3000 H34K one-arm antibody (antibody, human IgG1, kappa, L234A L235A, N297A, name in Kabat numbering) light: DIVMTQSPLSLPVTPGEPASISCRSSQSLVHSNRNTYLKWYQQKPGQAPRLLIYKVSNRFSGVPDRFSGSGSGTDFTLKISRVEAEDVGVYYCGQGTQVPYTFGQGTKLEIKRTVAAPSVFIFPPSDEQLKSGTASVVCLLNNFYPREAKVQWKVDNALQSGNSQESVTEQDSKDSTYSLSSTLTLSKADYEKHKVYACEVTHQGLSSPVTKSFNRGEC heavy: QVQLVESGGGVVQPGRSLRLSCAASGFTFSNAWMHWVRQAPGKGLEWVAQIKAKSNNYATYYAESVKGRFTISRDDSKNSLYLQMNSLKTEDTAVYYCRYVHYGAYYGVDAWGQGTTVTVSSASTKGPSVFPLAPSSKSTSGGTAALGCLVKDYFPEPVTVSWNSGALTSGVHTFPAVLQSSGLYSLSSVVTVPSSSLGTQTYICNVNHKPSNTKVDKKVEPKSCDKTHTCPPCPAPEAAGGPSVFLFPPKPKDTLMISRTPEVTCVVVDVSHEDPEVKFNWYVDGVEVHNAKTKPREEQYASTYRVVSVLTVLHQDWLNGKEYKCKVSNKALPAPIEKTISKAKGQPREPQVYTLPPSRCELTKNQVSLSCAVKGFYPSDIAVEWESNGQPENNYKTTPPVLDSDGSFFLVSKLTVDKSRWQQGNVFSCSVMHEALHNHYTQKSLSLSPDYKDDDDK EPKSSDKTHTCPPCPAPELLGGPSVFLFPPKPKDTLMISRTPEVTCVVVDVSHEDPEVKFNWYVDGVEVHNAKTKPREEQYNSTYRVVSVLTVLHQDWLNGKEYKCKVSNKALPAPIEKTISKAKGQPREPQVCTLPPSRDELTKNQVSLWCLVKGFYPSDIAVEWESNGQPENNYKTTPPVLDSDGSFFLYSKLTVDKSRWQQGNVFSCSVMHEALHNRYTQKSLSLSP | 2.17 |
| GLS3000 H34G one-arm antibody (antibody, human IgG1, kappa, L234A L235A, N297A, name in Kabat numbering) light: DIVMTQSPLSLPVTPGEPASISCRSSQSLVHSNRNTYLGWYQQKPGQAPRLLIYKVSNRFSGVPDRFSGSGSGTDFTLKISRVEAEDVGVYYCGQGTQVPYTFGQGTKLEIKRTVAAPSVFIFPPSDEQLKSGTASVVCLLNNFYPREAKVQWKVDNALQSGNSQESVTEQDSKDSTYSLSSTLTLSKADYEKHKVYACEVTHQGLSSPVTKSFNRGEC heavy: QVQLVESGGGVVQPGRSLRLSCAASGFTFSNAWMHWVRQAPGKGLEWVAQIKAKSNNYATYYAESVKGRFTISRDDSKNSLYLQMNSLKTEDTAVYYCRYVHYGAYYGVDAWGQGTTVTVSSASTKGPSVFPLAPSSKSTSGGTAALGCLVKDYFPEPVTVSWNSGALTSGVHTFPAVLQSSGLYSLSSVVTVPSSSLGTQTYICNVNHKPSNTKVDKKVEPKSCDKTHTCPPCPAPEAAGGPSVFLFPPKPKDTLMISRTPEVTCVVVDVSHEDPEVKFNWYVDGVEVHNAKTKPREEQYASTYRVVSVLTVLHQDWLNGKEYKCKVSNKALPAPIEKTISKAKGQPREPQVYTLPPSRCELTKNQVSLSCAVKGFYPSDIAVEWESNGQPENNYKTTPPVLDSDGSFFLVSKLTVDKSRWQQGNVFSCSVMHEALHNHYTQKSLSLSPDYKDDDDK EPKSSDKTHTCPPCPAPELLGGPSVFLFPPKPKDTLMISRTPEVTCVVVDVSHEDPEVKFNWYVDGVEVHNAKTKPREEQYNSTYRVVSVLTVLHQDWLNGKEYKCKVSNKALPAPIEKTISKAKGQPREPQVCTLPPSRDELTKNQVSLWCLVKGFYPSDIAVEWESNGQPENNYKTTPPVLDSDGSFFLYSKLTVDKSRWQQGNVFSCSVMHEALHNRYTQKSLSLSP | 1.02 |
